Here are results for eleven molecules from patent US20190309056A1 (VIB VZW, published 2019).

B1: anti-MIF ISVD E5 (VHH)
VHH: EVQLVESGGGLVHAGGSLRLSCAASGRTFSSYFMGWFRQAPGKAREFVANINFSGGTTVYASSVKGRFTISRDNSKNTVYLQMNSVKPEDTAVYYCVARGLTQDYDYWGQGTQVTVSS
notes: Family V. Expressed from pAX100, purified by IMAC; also called Nb E5
B2: anti-MIF ISVD H9 (VHH)
VHH: B1 VHH with F29S, S31T, M83L, V97S, T102N, D104E, Y107F
notes: Family V. Expressed from pAX100, purified by IMAC
B3: anti-MIF ISVD D4 (VHH)
VHH: KVQLVESGGGLVQDGGSLRLSCAASGRTASIQVMGWFRQAPGKEREFVGNIGWNYGLTLYPDSVKGRFTISRDNAKNTVYLQMNNLKPEDTAVYYCAARIGTTTYDYWGQGTQVTVSS
notes: Family III; Expressed from pAX100, purified by IMAC
B4: anti-MIF ISVD D2 (VHH)
VHH: B3 VHH with K1E, Q32H, V33T, K43Q, E46G, P61A, T104P
notes: as for B3
B5: anti-MIF ISVD A2 (VHH)
VHH: B3 VHH with K1E, P61A, S63P, T103I
notes: as for B3
B6: anti-MIF ISVD H5 (VHH)
VHH: EVQLVESGGGLVQPGGSLRLSCVASGFTFRTYAMSWVRQAPGKGSEWVSTINNGGGVTGYADSVEGRFTISRDNAKNTLYLQMNSLKPEDTAVYYCAKGTSRGQGTQVTVSS
notes: Family IV; Expressed from pAX100, purified by IMAC
B7: anti-MIF ISVD B5 (VHH)
VHH: EVQLVESGGGLVQAGGSLRLSCAASGRSFSNYIMGWFRQAPGKEREFVANISWNYGTTFYADSVKGRFTISGDSAKNTVYLQMTSLKPEDTAVYYCAARPVRGGRNFDYWGQGTQVTVSS
notes: Family I. Expressed from pAX100, purified by IMAC
B8: anti-MIF ISVD D12 (VHH)
VHH: EVQLVESGGGLVQAGGSLRLSCAASGRTISSYIVGWFRQAPGKEREFVANIGWSGSMPLYADSVKGRFTIFRDNAKNTVYLEMNKLKPEDTAVYYCAARGAGQLTNDYWGQGTQVTVSS
notes: Family VI; Expressed from pAX100, purified by IMAC
B9: anti-MIF ISVD E10 (VHH)
VHH: EVQLVESGGGSVQAGDSLRLSCAASGRTLSNSIMGWFRQAPGKEREFVANINWSGTSRLYADSVKGRFTISRDNTKSTVYLQMNSLKPEDTAIYYCAARSSTMSATDYWGQGTQVTVSS
notes: Family VII; Monovalent llama VHH expressed in E. coli from pAX100 and purified by IMAC (His-Trap) and gel filtration; also called Nb E10; monovalent E10
B10: anti-MIF ISVD C10 (VHH)
VHH: EVQLVESGGGLVQAGGSLRLSCAASGRTSSIVAIGWFRQAPGKEREFVSNIGWKFGSTVYVDSVKGRFTISKDNAKNTVYLQMNSLKPEDTAVYRCAARSDGRVYDSWGQGTQVTVSS
notes: Family II; Expressed from pAX100, purified by IMAC
B11: anti-MIF ISVD F10 (VHH)
VHH: B3 VHH with K1E, D73G, T78A
notes: as for B3

Where a chain is given by its changes, count along the chain named.

In one assay the target is T1, recombinant human Macrophage Migration Inhibitory Factor (MIF 2-115) (human, UniProt P14174 2-115).
T1 construct: rhMIF bought from R&D Systems; The background describes MIF as a homotrimer but also as monomer, dimer or higher oligomers; In the cell assays (THP-1, human PBMC) the MIF is the cells' own; also called rhMIF; human MIF
T1 sequence (P14174 2-115): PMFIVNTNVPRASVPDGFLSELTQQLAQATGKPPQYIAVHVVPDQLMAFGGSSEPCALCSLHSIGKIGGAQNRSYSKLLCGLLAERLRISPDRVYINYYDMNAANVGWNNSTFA
The assay is described as follows: SPR (BIAcore T200), rhMIF immobilised on CM5 chip, 1:1 Langmuir model. As for the experimental part: Surface plasmon resonance (SPR) experiments were performed on a BIAcore T200 system (GE Healthcare). Recombinant mouse MIF (rmMIF) or rhMIF (R&D systems) was immobilized on a CM5 chip (GE Healthcare). Briefly, the carboxylated dextran matrix was activated by injection of 0.2 M N-ethyl-N′-(3-[…]) carbodiimide (EDC) and 0.05 M N-hydroxysuccinimide (NHS) at a flow rate of 5 μl/min for 7 min. A rmMIF solution of 5 μg/ml prepared in coupling buffer (50 mM sodium acetate pH 4.0) was subsequently injected until 200 R.U. was immobilised. Next, the surface immobilisation was blocked by injection of 1 M ethanolamine hydrochloride for 7 min. As a reference, the surface in another flow cell was used and treated only with EDC, NHS, and ethanolamine. Data for the rmMIF-ISVD interaction were collected in the format of a kinetic titration (27). […] Analyte injections were performed with association phases of 180 s and a dissociation phase of 600 s. This was followed by 5 pulses of 15 μl regeneration buffer (HBS+100 mM NaOH). Prior to data analysis, reference and zero concentration data were subtracted from the sensorgrams. The data were analyzed with a 1:1 Langmuir binding model (27). Data for the rhMIF-ISVD interaction were collected as described elsewhere (28) and analyzed with a 1:1 Langmuir binding model.
On to B1, for which the dissociation constant Kd (as a rule, a measure of binding affinity in units of concentration) is 9.41 nM.
For B2, the dissociation constant (Kd) is 80.3 nM.
Still for that read-out and setting: in the case of B3 it was 35 nM.
On the same count and under the same terms, next, B4: 16.5 nM.
On the same count and under the same terms, next, B5: 2.96 nM.
Turning to B6, the Kd worked out at 27.5 nM.
Same read-out and setting: in the case of B7 it was 37.8 nM.
Consider B8, for which the Kd came out at 166 nM.
Take B9: the equilibrium dissociation constant (Kd) worked out at 64.5 nM.
Same read-out and setting: in the case of B10 it was 41.2 nM.

The target of the next assay is T1, recombinant human Macrophage Migration …. Nature of the assay: SPR (summary in the discussion).
On to B11, for which the binding result was “binds”.
